What was measured:
[1] = molecular target: cynomolgus LPL on HEK293 cells (cynomolgus); test: cell-based or functional assay
[2] = molecular target: rat LPL on HEK293 cells (rat) (UniProt Q06000); test: cell-based or functional assay
Chain of rat LPL on HEK293 cells (rat) (Q06000 28-474): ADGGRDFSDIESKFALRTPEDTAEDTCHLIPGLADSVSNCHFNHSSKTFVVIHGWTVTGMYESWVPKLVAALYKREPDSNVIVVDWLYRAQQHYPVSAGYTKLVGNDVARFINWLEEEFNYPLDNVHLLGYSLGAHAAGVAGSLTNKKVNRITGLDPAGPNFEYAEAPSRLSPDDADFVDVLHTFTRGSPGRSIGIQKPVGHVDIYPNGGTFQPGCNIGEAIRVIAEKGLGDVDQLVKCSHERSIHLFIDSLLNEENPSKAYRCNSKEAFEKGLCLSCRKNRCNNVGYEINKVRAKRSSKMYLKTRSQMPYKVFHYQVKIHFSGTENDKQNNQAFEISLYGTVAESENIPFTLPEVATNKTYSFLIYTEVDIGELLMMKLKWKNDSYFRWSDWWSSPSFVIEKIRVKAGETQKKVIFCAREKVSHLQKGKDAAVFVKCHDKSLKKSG

## cyno ANGPTL3/8 complex (from UniProt A0A2K5UDC5 17-460)
[1]
  IC80 concentration (inhibition of LPL activity): 380 pM

## rat ANGPTL3/8 complex (from UniProt F7FHP0 17-446)
[2]
  IC80 concentration (inhibition of LPL activity): 810 pM
